The values that follow come from US12552837B2, “Bicyclic peptide ligands with detectable moieties and uses thereof” (BicycleRD Limited, priority 2017, dated 2026).

One data set has as its target human CAIX (Homo sapiens, UniProt Q16790). To be noted: bicyclic peptide formed with TBMB; as described in UK provisional application P2120; read-out: Kd of CAIX binder; cited from earlier work.
A further data set has as its system xenograft tumor. As to the kind of experiment: μPET imaging with 68Ga-labelled Bicycle peptides in xenograft mice. In kind it is in vivo. The settings on record: 150 pmoles. As to the method:
General method for μPET imaging: the mice were anaesthetized (2% sevoflurane, Abbott), placed into the small animal PET scanner (Inveon PET, Siemens) and injected with 68Ga-labeled Bicycle peptides. A 20 min transmission scan, a 50 min dynamic scan and a static scan from 100 to 120 min p.i. were performed. Images were reconstructed iteratively using the space alternating generalized expectation maximization method (SAGE, 16 subsets, 4 iterations) applying median root prior correction and were converted to standardized uptake value (SUV) images. Quantitation was done using a ROI (region of interest) technique and expressed as SUVmean.
General method for radiolabeling with Ga-68: ^68Ga (half-life 68 min; β^+ 89%; Eβ+max. 1.9 MeV) was obtained from a in house ^68Ge/^68Ga generator based on pyrogallol resin support. 1 GBq ^68Ga was eluted using 5.5 M HCl. The activity was trapped on a small anion-exchanger cartridge (AG1X8, Biorad, Richmond, CA, USA) as [^68Ga]GaCl4^−. The radiogallium was eluted from the cartridge in a final volume of 300 μL ultrapure water (Merck, Darmstadt, Germany) as [^68Ga]GaCl3.
1 nmol Bicycle peptide in 1 μL DMSO was added to a mixture of 50 μL 0.05 M HEPES, 0.1% Tween-20, and 80 μL [^68Ga]Ga^3+ eluate (˜200 MBq). The pH of the labelling solution was adjusted to 4.2 using 30% NaOH. The reaction mixture was incubated at 98° C. for 10 minutes. The radiochemical yield (RCY) was determined using reversed-phase high performance liquid chromatography (RP-HPLC; Chromolith RP-18e, 100×4.6 mm; Merck, Darmstadt, Germany). The analytical HPLC run was performed using a linear A-B gradient (0% B to 100% B in 6 min) at a flow rate of 4 mL/min. Solvent A consisted of 0.1% aqueous TFA and solvent B was 0.1% TFA in CH3CN.
For μPET imaging, the labelling reaction mixture was diluted in injection buffer (0.25 M Na-Acetate 0.05% Tween-20 pH 7) by a factor of 6 to obtain 150 pmoles in 100 μL injection buffer. The anaesthetized mouse (2% sevoflurane, Abbott) was injected with 100 μL of ^68Ga-labelled I-23 (˜25 MBq) and placed in a small animal PET scanner (Inveon PET, Siemens). The imaging was performed 60 min post-injection and included a 15 min transmission scan before injection and a 60 min emission scan post-injection. Scans from μPET imaging were reconstructed iteratively using the space alternating generalized expectation maximization method (SAGE, 16 subsets, 4 iterations) applying median root prior correction and were converted to standardized uptake value (SUV) images. Quantitation was accomplished using an ROI (region of interest) technique and expressed as SUVmean.
The radiolabelling with Ga-68 was done as described before. […] Quantitation was accomplished using an ROI (region of interest) technique and expressed as SUVmean. […]

Another data set concerns the target integrin αvβ3 (Homo sapiens, UniProt P05106+P06756). The settings on record: bicyclic peptide formed with TBMB; as described in UK provisional application P2122; read-out: Ki of αvβ3 binder; cited from earlier work.
A further data set addresses MT1-MMP hemopexin domain (Homo sapiens, UniProt P50281). To be noted: bicyclic peptide formed with TBMB; as described in WO 2016/067035; read-out: Kd of MT1-MMP binder; cited from earlier work.

pKd, pKi: −log10 of the molar value. *1 amine or outer side, *2 acyl side, *3 side chain or, on linkers, in order; H or OH if unused. Where a SMILES comes first, the peptide text is derived from it. Bridges are numbered along the chain shown (N, C = ends). Where no end group is shown, it is not given here. [ ]: non-standard residue; d: D form. The star is where a group is joined. DOTA = O=C(O)CN1CCN(CC(=O)O)CCN(CC(=O)*)CCN(CC(=O)O)CC1; 1Nal = N[C@@H](Cc1cccc2ccccc12)C(=O)O; TBMB = c1c(C[*:1])cc(C[*:3])cc1C[*:2]; hArg = N=C(N)NCCCC[C@H](N)C(=O)O; Tle = CC(C)(C)[C@H](N)C(=O)O; Aib = CC(C)(N)C(=O)O; βAla = NCCC(=O)O; Sar = CNCC(=O)O

integrin αvβ3, sequence (P06756 31-889 limits assumed): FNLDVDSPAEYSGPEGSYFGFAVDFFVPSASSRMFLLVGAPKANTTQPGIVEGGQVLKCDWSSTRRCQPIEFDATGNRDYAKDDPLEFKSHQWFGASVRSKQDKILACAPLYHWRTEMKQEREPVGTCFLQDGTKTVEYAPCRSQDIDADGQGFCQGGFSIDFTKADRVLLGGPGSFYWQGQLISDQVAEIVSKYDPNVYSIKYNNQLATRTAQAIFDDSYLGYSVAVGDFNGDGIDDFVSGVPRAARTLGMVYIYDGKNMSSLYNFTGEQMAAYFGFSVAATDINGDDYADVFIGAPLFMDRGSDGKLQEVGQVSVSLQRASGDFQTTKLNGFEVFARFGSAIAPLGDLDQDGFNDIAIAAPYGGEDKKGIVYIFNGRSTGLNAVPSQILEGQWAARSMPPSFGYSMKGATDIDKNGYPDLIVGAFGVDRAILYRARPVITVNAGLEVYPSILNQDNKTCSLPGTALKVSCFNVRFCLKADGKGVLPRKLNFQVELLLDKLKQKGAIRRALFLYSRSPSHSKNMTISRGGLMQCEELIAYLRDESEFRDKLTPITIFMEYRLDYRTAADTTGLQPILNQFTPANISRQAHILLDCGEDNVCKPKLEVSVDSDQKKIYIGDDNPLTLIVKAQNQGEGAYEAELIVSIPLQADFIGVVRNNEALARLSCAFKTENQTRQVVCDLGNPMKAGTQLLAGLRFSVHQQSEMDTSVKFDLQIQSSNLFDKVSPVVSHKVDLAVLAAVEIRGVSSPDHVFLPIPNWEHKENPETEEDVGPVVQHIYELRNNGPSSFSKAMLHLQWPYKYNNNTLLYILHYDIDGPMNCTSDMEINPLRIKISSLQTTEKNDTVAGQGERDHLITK
integrin αvβ3, sequence (P06756 891-1048 partner limits assumed): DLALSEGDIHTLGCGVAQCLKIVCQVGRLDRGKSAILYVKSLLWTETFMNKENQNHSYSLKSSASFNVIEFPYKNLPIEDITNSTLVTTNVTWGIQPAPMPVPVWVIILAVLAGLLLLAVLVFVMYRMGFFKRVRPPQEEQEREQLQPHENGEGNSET
integrin αvβ3, sequence (P05106 27-788): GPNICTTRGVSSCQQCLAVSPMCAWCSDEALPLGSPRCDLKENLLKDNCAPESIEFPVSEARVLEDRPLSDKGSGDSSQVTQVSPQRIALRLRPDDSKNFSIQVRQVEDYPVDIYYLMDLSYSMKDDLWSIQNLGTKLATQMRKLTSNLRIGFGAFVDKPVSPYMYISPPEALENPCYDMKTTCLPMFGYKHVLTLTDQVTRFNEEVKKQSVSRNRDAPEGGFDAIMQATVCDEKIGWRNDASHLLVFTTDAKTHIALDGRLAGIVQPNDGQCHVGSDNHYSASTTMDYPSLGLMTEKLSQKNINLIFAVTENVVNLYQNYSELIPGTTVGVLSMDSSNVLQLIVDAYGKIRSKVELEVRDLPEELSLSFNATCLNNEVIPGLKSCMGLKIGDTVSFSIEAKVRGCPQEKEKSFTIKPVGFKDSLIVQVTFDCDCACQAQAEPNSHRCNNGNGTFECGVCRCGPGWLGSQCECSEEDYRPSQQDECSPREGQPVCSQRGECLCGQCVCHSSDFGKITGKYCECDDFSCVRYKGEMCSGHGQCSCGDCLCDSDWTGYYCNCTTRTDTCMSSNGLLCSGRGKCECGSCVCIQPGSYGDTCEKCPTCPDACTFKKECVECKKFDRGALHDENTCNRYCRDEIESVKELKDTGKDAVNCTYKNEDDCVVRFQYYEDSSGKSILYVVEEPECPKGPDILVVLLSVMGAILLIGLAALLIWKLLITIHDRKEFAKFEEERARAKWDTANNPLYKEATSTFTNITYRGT

Regarding “βA1a-Sar10-A-CTECWVDGWVPC [compound 3, "peptide 3"]”, at human CAIX, the pKd (as a rule, the Kd on a negative log10 scale, so that one unit is a factor of ten) is 8.00.
As to `CC(C)[C@H](NC(=O)[C@@H](CC(=O)O)NC(=O)[C@H](Cc1c[nH]cn1)NC(=O)CN(C)C(=O)CN(C)C(=O)CN(C)C(=O)CN(C)C(=O)CN(C)C(=O)CN(C)C(=O)CN(C)C(=O)CN(C)C(=O)CN(C)C(=O)CN(C)C(=O)CCNC(=O)CN1CCN(CC(=O)O)CCN(CC(=O)O)CCN(CC(=O)O)CC1)C(=O)N1CCC[C@H]1C(=O)N[C@H]1CSCc2cc3cc(c2)CSC[C@H](NC(=O)[C@H](Cc2cccc4ccccc24)NC(=O)[C@H](Cc2ccccc2)NC(=O)C(C)(C)NC(=O)CNC(=O)[C@H](Cc2cccc4ccccc24)NC(=O)C(C)(C)NC1=O)C(=O)N1CCC[C@H]1C(=O)N[C@@H](C(C)(C)C)C(=O)N[C@@H](CC(N)=O)C(=O)N[C@@H](CCCCNC(=N)N)C(=O)N1CCC[C@H]1C(=O)N[C@H](CC(=O)O)C(=O)N[C@H](C(N)=O)CSC3` [I-15] ({DOTA-βAla}-[Sar][Sar][Sar][Sar][Sar][Sar][Sar][Sar][Sar][Sar]H[dD]VPC[Aib][1Nal]G[Aib]F[1Nal]CP[Tle]N[hArg]P[dD]C-NH2; linker 15-22-29 via TBMB), in the data set with xenograft tumor, the “liver uptake in PET imaging” value is listed as “clearly reduced liver uptake” and the “tumor signal in PET imaging” value is reported as “extremely high”.
As to “Ac-CIL(HArg)PNCDLDGRCA-Sar6-(D-K) [compound 5, "peptide 5"]”, the negative-log Ki (pKi) (in general, the negative decadic logarithm of the Ki, by convention in mol/L) at integrin αvβ3 was 7.82.
Consider “βAla-Sar10-A-C(D-Ala)NE(1Nal)(D-Ala)CEDFYD(tBuGLy)C ([βAla][Sar][Sar][Sar][Sar][Sar][Sar][Sar][Sar][Sar][Sar]AC[dA]NE[1Nal][dA]CEDFYD[Tle]C; linker 13-19-26 via TBMB) [17-69-07-N241, "peptide 1 (17-69-07-N241)"]”, for which the pKd with MT1-MMP hemopexin domain was 8.92.
